Reference: patent US20150274828A1 (SHANGHAI SERUM BIOTECHNOLOGY, published 2015)

Assays:
[1] = biological target: T1, Recombinant human epidermal growth factor (EGF) (human, UniProt P01133 971-1023); experiment: ELISA, EGF coated at 1 µg/well, antibody without EGFR-Fc, HRP goat anti-human IgG
T1 construct: Coated on the ELISA plate; also called EGR

[2] = biological target: T2, EGFR on A431 cell surface (human, UniProt P00533 25-1210); experiment: flow cytometry on A431 cells, antibody 0.03 µg/ml, FITC anti-human IgG
T2 construct: whole, on cells; also called natural EGFR on surface of A431 cell

[3] = biological target: T3, EGFR-Fc fusion protein (recombinant EGFR extracellular region-Fc) (human, UniProt P00533 25-645); experiment: BLI Fortebio, method of Example 5 (biotinylated EGFR-Fc on streptavidin sensor)
T3 construct: extracellular domain; not shown: Fc part supplied by vector pABG1

[4] = biological target: T3, EGFR-Fc fusion protein (recombinant …); experiment: BLI ForteBio QKe, biotinylated EGFR-Fc on streptavidin sensor, antibody 20 nM; fold reduction of affinity, parent Ame55 = 1;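 also: parent antibody affinity set as 1, with values giving the fold drop in affinity of each mutant antibody relative to that parent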
[5] = biological target: T3, EGFR-Fc fusion protein (recombinant …); experiment: phage ELISA, EGFR-Fc coated, anti-M13-HRP

T1 sequence (P01133 971-1023 limits assumed): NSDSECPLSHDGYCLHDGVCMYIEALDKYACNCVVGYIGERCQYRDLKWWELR

B1: Ame55 intact antibody (IgG1) (antibody, V domains shown)
VH: EVQLVQSGAEVKKPGESLKISCKGSGYSFTSYWIGWVRQMPGKGLEWMGIIYPGDSDTRYSPSFQGQVTISADKSISTAYLQWSSLKASDTAMYYCARGIIYPSNVAVWGQGTLVTVSS
VL: SYELTQPPSVSVAPGQTARITCSGDALGDKYASWYQQKPGQAPVLVIYEDSKRPSGIPERFSGSNSGNTATLTISGTQAEDEADYYCSVWDGDWGMPVFGGGTKLTVLG
notes: Variable regions cloned into vectors pABL and pABG1 and expressed in HEK293T as intact IgG1 with lambda light chain; also called Amet55; parent antibody Ame55
binding result [1]: no binding | binding result [2]: binds

B2: Ame-9B (antibody, V domains shown)
VH: EVQLVESGGGLVQPGGSLRLSCAASGFTFSSYAMSWVRQAPGKGLEWVSAITGTGGETYYADSVKGRFTISRDNSKNTLYLQMNSLRAEDTAVYYCARGWSWTGVDPWGQGTLVTVSS
VL: SYELTQPPSVSVAPGQTARITCSGDALGDKYASWYQQKPGQAPVLVIYEDSKRPSGIPERFSGSNSGNTATLTISGTQAEDEADYYCSVWDGDWGMPVFGGGTKLTVLG
notes: Expressed in HEK293, purified on Protein A; also called mutant Ame-9B
fold decrease of affinity (against Ame55) [3]: ~6 times

B3: Ame55 mutant, light chain 94A (antibody, V domains shown)
VH: EVQLVQSGAEVKKPGESLKISCKGSGYSFTSYWIGWVRQMPGKGLEWMGIIYPGDSDTRYSPSFQGQVTISADKSISTAYLQWSSLKASDTAMYYCARGIIYPSNVAVWGQGTLVTVSS
VL: SYELTQPPSVSVAPGQTARITCSGDALGDKYASWYQQKPGQAPVLVIYEDSKRPSGIPERFSGSNSGNTATLTISGTQAEDEADYYCSVWDGDAGMPVFGGGTKLTVLG
notes: Mutant of Ame55
Affinity change [4]: > 10 fold

B4: AmeA1C1 (the mutated light chain has Gly at site 26 and Ser at site 89) (antibody, V domains shown)
VH: EVQLVQSGAEVKKPGESLKISCKGSGYSFTSYWIGWVRQMPGKGLEWMGIIYPGDSDTRYSPSFQGQVTISADKSISTAYLQWSSLKASDTAMYYCARGIIYPSNVAVWGQGTLVTVSS
VL: SYELTQPPSVSVAPGQTARITCSGDGLGDKYASWYQQKPGQAPVLVIYEDSKRPSGIPERFSGSNSGNTATLTISGTQAEDEADYYCSSWDGDWGMPVFGGGTKLTVLG
notes: Mutant of Ame55; also called 26G + 89S
Affinity change [4]: < 0.3 fold

B5: AmeA1C3 (the mutated light chain has Lys at site 26 and Ser at site 89) (antibody, V domains shown)
VH: EVQLVQSGAEVKKPGESLKISCKGSGYSFTSYWIGWVRQMPGKGLEWMGIIYPGDSDTRYSPSFQGQVTISADKSISTAYLQWSSLKASDTAMYYCARGIIYPSNVAVWGQGTLVTVSS
VL: SYELTQPPSVSVAPGQTARITCSGDKLGDKYASWYQQKPGQAPVLVIYEDSKRPSGIPERFSGSNSGNTATLTISGTQAEDEADYYCSSWDGDWGMPVFGGGTKLTVLG
notes: Mutant of Ame55; also called 26K + 89S
Affinity change [4]: < 0.2 fold

B6: Ame55 mutant, light chain 93A (antibody, V domains shown)
VH: EVQLVQSGAEVKKPGESLKISCKGSGYSFTSYWIGWVRQMPGKGLEWMGIIYPGDSDTRYSPSFQGQVTISADKSISTAYLQWSSLKASDTAMYYCARGIIYPSNVAVWGQGTLVTVSS
VL: SYELTQPPSVSVAPGQTARITCSGDALGDKYASWYQQKPGQAPVLVIYEDSKRPSGIPERFSGSNSGNTATLTISGTQAEDEADYYCSVWDGAWGMPVFGGGTKLTVLG
notes: Mutant of Ame55
Affinity change [4]: > 10 fold

B7: Ame55 mutant, light chain 96A (antibody, V domains shown)
VH: EVQLVQSGAEVKKPGESLKISCKGSGYSFTSYWIGWVRQMPGKGLEWMGIIYPGDSDTRYSPSFQGQVTISADKSISTAYLQWSSLKASDTAMYYCARGIIYPSNVAVWGQGTLVTVSS
VL: SYELTQPPSVSVAPGQTARITCSGDALGDKYASWYQQKPGQAPVLVIYEDSKRPSGIPERFSGSNSGNTATLTISGTQAEDEADYYCSVWDGDWGAPVFGGGTKLTVLG
notes: Mutant of Ame55
Affinity change [4]: > 10 fold

B8: AmeA2C3 (the mutated light chain has Lys at site 26 and Ala at site 89) (antibody, V domains shown)
VH: EVQLVQSGAEVKKPGESLKISCKGSGYSFTSYWIGWVRQMPGKGLEWMGIIYPGDSDTRYSPSFQGQVTISADKSISTAYLQWSSLKASDTAMYYCARGIIYPSNVAVWGQGTLVTVSS
VL: SYELTQPPSVSVAPGQTARITCSGDKLGDKYASWYQQKPGQAPVLVIYEDSKRPSGIPERFSGSNSGNTATLTISGTQAEDEADYYCSAWDGDWGMPVFGGGTKLTVLG
notes: Mutant of Ame55; also called 26K + 89A
Affinity change [4]: < 0.1 fold

B9: AmeA2 (Ame55 mutant, light chain 89A(A2)) (antibody, V domains shown)
VH: EVQLVQSGAEVKKPGESLKISCKGSGYSFTSYWIGWVRQMPGKGLEWMGIIYPGDSDTRYSPSFQGQVTISADKSISTAYLQWSSLKASDTAMYYCARGIIYPSNVAVWGQGTLVTVSS
VL: SYELTQPPSVSVAPGQTARITCSGDALGDKYASWYQQKPGQAPVLVIYEDSKRPSGIPERFSGSNSGNTATLTISGTQAEDEADYYCSAWDGDWGMPVFGGGTKLTVLG
notes: Mutant of Ame55
Affinity change [4]: 0.25 fold

B10: Ame55 mutant, light chain 95S (antibody, V domains shown)
VH: EVQLVQSGAEVKKPGESLKISCKGSGYSFTSYWIGWVRQMPGKGLEWMGIIYPGDSDTRYSPSFQGQVTISADKSISTAYLQWSSLKASDTAMYYCARGIIYPSNVAVWGQGTLVTVSS
VL: SYELTQPPSVSVAPGQTARITCSGDALGDKYASWYQQKPGQAPVLVIYEDSKRPSGIPERFSGSNSGNTATLTISGTQAEDEADYYCSVWDGDWSMPVFGGGTKLTVLG
notes: Mutant of Ame55
Affinity change [4]: > 10 fold

B11: AmeA2C1 (the mutated light chain has Gly at site 26 and Ala at site 89) (antibody, V domains shown)
VH: EVQLVQSGAEVKKPGESLKISCKGSGYSFTSYWIGWVRQMPGKGLEWMGIIYPGDSDTRYSPSFQGQVTISADKSISTAYLQWSSLKASDTAMYYCARGIIYPSNVAVWGQGTLVTVSS
VL: SYELTQPPSVSVAPGQTARITCSGDGLGDKYASWYQQKPGQAPVLVIYEDSKRPSGIPERFSGSNSGNTATLTISGTQAEDEADYYCSAWDGDWGMPVFGGGTKLTVLG
notes: Mutant of Ame55; also called 26G + 89A
Affinity change [4]: < 0.2 fold

B12: Ame55 mutant, light chain 97A (antibody, V domains shown)
VH: EVQLVQSGAEVKKPGESLKISCKGSGYSFTSYWIGWVRQMPGKGLEWMGIIYPGDSDTRYSPSFQGQVTISADKSISTAYLQWSSLKASDTAMYYCARGIIYPSNVAVWGQGTLVTVSS
VL: SYELTQPPSVSVAPGQTARITCSGDALGDKYASWYQQKPGQAPVLVIYEDSKRPSGIPERFSGSNSGNTATLTISGTQAEDEADYYCSVWDGDWGMAVFGGGTKLTVLG
notes: Mutant of Ame55
Affinity change [4]: > 10 fold

B13: Ame55 mutant, light chain 95A (antibody, V domains shown)
VH: EVQLVQSGAEVKKPGESLKISCKGSGYSFTSYWIGWVRQMPGKGLEWMGIIYPGDSDTRYSPSFQGQVTISADKSISTAYLQWSSLKASDTAMYYCARGIIYPSNVAVWGQGTLVTVSS
VL: SYELTQPPSVSVAPGQTARITCSGDALGDKYASWYQQKPGQAPVLVIYEDSKRPSGIPERFSGSNSGNTATLTISGTQAEDEADYYCSVWDGDWAMPVFGGGTKLTVLG
notes: Mutant of Ame55
Affinity change [4]: > 10 fold

B14: Ame55 mutant, light chain G28P (antibody, V domains shown)
VH: EVQLVQSGAEVKKPGESLKISCKGSGYSFTSYWIGWVRQMPGKGLEWMGIIYPGDSDTRYSPSFQGQVTISADKSISTAYLQWSSLKASDTAMYYCARGIIYPSNVAVWGQGTLVTVSS
VL: SYELTQPPSVSVAPGQTARITCSGDALPDKYASWYQQKPGQAPVLVIYEDSKRPSGIPERFSGSNSGNTATLTISGTQAEDEADYYCSVWDGDWGMPVFGGGTKLTVLG
notes: Mutant of Ame55
Affinity change [4]: > 100 fold

B15: Ame55 phage single chain antibody (scFv)
scFv: SYELTQPPSVSVAPGQTARITCSGDALGDKYASWYQQKPGQAPVLVIYEDSKRPSGIPERFSGSNSGNTATLTISGTQAEDEADYYCSVWDGDWGMPVFGGGTKLTVLGSGGSTITSYNVYYTKLSSSGSEVQLVQSGAEVKKPGESLKISCKGSGYSFTSYWIGWVRQMPGKGLEWMGIIYPGDSDTRYSPSFQGQVTISADKSISTAYLQWSSLKASDTAMYYCARGIIYPSNVAVWGQGTLVTVSS
notes: the phage coat fusion is not described; also called Ame55 phage antibody; Ame55 single chain antibody
binding result [5]: binds
